Measurements from EP4688000A1 (dated 2026).

What was measured:
[1] = molecular target: T1, human integrin α6β1 on CHO-S cells (CHO-S-human ITGA6B1-#24) (human, UniProt P05556 21-798; P23229 24-1130); assay: flow cytometry on CHO-S-human ITGA6B1-#24 cells
T1 construct: whole, on cells; also called human ITGB1

[2] = molecular target: T2, mouse integrin α6β4 on cells (CHO-S-murine ITGA6B4-#12; 4T1) (mouse, UniProt A2A863 29-1818; Q61739 24-1091); assay: flow cytometry on 4T1 and CHO-S-murine ITGA6B4-#12 cells
T2 construct: whole, on cells; also called mouse ITGB4; CHO-S-mouse ITGB4
T2 sequence (A2A863 29-1818, chain 1 of 2): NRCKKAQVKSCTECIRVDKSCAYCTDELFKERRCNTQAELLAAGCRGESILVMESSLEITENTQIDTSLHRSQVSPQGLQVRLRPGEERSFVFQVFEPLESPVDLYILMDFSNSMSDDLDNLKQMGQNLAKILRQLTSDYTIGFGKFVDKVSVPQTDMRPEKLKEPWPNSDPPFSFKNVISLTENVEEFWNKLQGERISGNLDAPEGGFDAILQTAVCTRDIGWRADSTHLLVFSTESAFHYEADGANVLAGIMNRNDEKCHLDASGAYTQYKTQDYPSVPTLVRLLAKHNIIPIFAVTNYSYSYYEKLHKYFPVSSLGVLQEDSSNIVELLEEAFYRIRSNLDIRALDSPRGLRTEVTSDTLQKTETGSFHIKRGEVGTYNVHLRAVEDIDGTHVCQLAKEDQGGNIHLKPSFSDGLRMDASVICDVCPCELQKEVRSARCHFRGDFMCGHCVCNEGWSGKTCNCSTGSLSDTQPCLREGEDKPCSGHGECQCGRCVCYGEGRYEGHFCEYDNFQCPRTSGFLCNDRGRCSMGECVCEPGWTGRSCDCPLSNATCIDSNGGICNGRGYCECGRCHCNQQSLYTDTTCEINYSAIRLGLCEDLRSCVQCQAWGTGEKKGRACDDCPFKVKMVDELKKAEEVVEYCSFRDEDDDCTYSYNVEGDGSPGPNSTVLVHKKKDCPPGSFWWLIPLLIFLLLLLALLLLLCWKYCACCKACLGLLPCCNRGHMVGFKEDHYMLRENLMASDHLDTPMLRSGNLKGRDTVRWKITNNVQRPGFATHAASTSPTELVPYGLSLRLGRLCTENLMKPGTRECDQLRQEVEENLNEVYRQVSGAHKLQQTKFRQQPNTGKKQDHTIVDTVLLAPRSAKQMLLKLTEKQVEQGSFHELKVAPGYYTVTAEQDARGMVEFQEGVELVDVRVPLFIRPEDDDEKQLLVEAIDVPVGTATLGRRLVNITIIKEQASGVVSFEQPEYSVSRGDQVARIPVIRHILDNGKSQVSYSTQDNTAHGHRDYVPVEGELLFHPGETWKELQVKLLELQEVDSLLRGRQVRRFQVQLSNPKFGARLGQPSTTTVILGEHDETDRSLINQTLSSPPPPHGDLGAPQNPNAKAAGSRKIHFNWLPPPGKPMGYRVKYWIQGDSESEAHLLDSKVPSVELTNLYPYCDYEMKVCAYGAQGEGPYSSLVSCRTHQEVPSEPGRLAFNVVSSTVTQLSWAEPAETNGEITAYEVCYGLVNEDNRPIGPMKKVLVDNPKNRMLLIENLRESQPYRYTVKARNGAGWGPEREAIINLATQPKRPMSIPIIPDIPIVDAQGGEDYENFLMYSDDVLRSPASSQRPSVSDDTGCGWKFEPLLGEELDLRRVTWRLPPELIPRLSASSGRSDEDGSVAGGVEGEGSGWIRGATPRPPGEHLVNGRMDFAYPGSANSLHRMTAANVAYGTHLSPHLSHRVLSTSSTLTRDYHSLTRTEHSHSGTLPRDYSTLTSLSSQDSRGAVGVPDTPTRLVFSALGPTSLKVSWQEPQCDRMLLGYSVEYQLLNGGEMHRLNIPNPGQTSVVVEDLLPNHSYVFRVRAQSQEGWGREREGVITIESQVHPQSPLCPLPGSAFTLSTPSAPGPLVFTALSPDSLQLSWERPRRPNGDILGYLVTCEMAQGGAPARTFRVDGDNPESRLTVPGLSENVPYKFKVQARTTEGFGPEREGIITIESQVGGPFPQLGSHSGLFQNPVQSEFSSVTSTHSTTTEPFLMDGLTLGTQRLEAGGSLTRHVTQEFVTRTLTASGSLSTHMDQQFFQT
T2 sequence (Q61739 24-1091, chain 2 of 2): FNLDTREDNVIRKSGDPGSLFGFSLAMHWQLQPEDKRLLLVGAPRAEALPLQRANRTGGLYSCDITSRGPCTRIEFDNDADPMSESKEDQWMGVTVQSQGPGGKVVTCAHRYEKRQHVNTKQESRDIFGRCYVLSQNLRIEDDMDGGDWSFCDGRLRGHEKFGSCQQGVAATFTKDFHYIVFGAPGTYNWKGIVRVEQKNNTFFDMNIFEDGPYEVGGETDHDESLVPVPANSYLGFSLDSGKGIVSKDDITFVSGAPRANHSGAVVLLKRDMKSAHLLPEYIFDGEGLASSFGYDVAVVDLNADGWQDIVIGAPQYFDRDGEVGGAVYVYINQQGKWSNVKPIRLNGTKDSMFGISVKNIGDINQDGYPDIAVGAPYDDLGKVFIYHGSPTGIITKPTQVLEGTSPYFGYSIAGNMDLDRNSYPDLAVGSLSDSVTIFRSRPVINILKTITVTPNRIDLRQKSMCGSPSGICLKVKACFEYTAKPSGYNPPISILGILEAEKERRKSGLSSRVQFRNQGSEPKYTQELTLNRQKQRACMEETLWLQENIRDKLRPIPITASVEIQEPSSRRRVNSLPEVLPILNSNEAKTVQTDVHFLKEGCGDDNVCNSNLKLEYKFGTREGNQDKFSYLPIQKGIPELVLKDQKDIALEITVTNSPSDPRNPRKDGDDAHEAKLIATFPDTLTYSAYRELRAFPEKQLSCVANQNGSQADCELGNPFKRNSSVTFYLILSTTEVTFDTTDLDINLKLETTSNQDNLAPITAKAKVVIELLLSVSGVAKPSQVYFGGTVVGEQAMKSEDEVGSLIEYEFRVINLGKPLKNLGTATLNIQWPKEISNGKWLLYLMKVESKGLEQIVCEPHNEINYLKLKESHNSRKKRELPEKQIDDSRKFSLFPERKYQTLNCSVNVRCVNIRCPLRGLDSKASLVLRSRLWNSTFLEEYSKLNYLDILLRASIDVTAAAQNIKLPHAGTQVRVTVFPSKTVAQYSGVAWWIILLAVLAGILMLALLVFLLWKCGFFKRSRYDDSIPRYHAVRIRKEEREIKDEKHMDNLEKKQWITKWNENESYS

T1 sequence (P05556 21-798, chain 1 of 2): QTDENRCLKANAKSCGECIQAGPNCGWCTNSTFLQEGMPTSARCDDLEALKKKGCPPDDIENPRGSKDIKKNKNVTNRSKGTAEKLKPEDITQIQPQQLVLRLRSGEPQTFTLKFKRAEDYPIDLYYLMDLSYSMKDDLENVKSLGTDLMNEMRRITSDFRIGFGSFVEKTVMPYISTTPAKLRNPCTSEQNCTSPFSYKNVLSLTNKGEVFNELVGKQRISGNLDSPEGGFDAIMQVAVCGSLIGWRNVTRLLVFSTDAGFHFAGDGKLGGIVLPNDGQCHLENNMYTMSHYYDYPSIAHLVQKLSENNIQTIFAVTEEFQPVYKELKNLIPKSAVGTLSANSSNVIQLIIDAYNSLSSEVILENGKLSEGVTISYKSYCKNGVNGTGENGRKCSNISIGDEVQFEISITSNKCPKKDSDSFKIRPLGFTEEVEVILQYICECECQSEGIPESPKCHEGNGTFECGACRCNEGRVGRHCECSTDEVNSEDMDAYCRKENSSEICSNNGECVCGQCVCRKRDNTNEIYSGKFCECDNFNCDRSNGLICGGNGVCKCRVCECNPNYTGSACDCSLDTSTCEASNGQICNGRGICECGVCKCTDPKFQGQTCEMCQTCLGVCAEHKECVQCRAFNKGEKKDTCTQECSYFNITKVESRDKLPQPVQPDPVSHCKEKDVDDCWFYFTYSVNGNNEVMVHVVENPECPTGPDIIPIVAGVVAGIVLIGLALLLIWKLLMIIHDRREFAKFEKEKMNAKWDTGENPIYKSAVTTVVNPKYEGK
T1 sequence (P23229 24-1130, chain 2 of 2): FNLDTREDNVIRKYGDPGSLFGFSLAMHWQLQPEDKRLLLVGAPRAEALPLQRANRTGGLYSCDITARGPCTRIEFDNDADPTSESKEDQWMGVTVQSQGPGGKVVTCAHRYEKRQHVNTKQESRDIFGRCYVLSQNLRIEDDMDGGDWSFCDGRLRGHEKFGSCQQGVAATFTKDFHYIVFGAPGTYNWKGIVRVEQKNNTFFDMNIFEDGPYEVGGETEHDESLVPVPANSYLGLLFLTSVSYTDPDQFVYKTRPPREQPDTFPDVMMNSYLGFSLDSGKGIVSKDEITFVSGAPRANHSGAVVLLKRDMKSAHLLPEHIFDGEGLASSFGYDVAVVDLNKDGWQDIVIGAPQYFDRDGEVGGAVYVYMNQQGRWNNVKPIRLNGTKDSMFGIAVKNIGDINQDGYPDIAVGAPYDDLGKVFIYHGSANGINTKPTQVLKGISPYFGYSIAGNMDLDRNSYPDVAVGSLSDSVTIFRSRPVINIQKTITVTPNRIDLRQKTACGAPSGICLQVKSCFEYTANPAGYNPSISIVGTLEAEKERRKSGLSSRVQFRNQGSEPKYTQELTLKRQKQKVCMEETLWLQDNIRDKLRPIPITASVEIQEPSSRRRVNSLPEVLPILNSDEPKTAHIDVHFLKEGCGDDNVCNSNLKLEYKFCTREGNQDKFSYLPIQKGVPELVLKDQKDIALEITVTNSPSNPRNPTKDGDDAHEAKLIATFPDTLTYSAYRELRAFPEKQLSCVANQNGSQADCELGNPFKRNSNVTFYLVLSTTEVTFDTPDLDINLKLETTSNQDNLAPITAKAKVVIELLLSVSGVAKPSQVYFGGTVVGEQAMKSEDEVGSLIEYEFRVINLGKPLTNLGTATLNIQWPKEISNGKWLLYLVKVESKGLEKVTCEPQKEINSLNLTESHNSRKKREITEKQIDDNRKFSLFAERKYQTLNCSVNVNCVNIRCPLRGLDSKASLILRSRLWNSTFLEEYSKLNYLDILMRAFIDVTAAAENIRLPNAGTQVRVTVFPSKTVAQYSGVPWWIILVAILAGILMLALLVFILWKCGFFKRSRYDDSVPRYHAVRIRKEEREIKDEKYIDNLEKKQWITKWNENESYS

B1: anti-ITGB4 antibody 008 (parental clone) (antibody, V domains shown)
VH: QVQLKQSGPSLVQPSQSLSITCTVSGFSLTSYGVHWFRQSPGKGLEWLGVIWRGGNTDYNAAFMSRLSITKDNSKSQVFFKMNSLQPDDTAIYYCVKNYRFGGSAYWGQGTLVTVSA
VL: DIQMTQTTSSLSASLGDRVTISCRASQDISNHLNWYQQKPDGTVKLLIYYTSTLHSGVPSRFSGSGSGTDYSLTISNLEPEDIATYYCQQDLNLPWTFGGGTKLEIK
notes: In the assays it was captured on anti-human IgG Fc sensors and detected with anti-human IgG, so the tested form carries a human Fc; also called 008 clone
B1: no binding [1]; no binding [2].
